From article PMC6517241 (Chembiochem : a European journal of chemical biology, 2019)

What was measured:
[1] = test system: SH-SY5Y human neuroblastoma cells; experiment: Flow cytometry quantitation of cellular uptake, SH-SY5Y; format: cell-based
[2] = Cellular toxicity; format: cell-based; settings: Figure S6
[3] = ref 5b; cited from earlier work

Substance | Potency of L- and D-enantiomers as pore-forming antibacterial peptides [3] | also measured
L-Aβ42-TAMRA: L-Aβ42 N-terminally labeled with 5(6)-Carboxytetramethylrhodamine (TAMRA) | – | Cell fluorescence after incubation at 4 °C (membrane binding) ([1]; SH-SY5Y, 2 h, 4 °C, flow cytometry (Figure S12)): low fluorescence; Influence of N-terminal TAMRA modification on cellular toxicity [2]: not influence cellular toxicity to any significant degree
L-Aβ42: natural L-stereoisomer of the 42 amino acid isoform of Amyloid β | – | Fraction taken up through chirality-dependent mechanisms (class I) ([1]; interpretation of the ~5:1 ratio): approximately 80%
cecropin | equally potent | –
melittin | equally potent | –
magainin | equally potent | –
